The record followed here is patent CN111620945A.

Broadly, the Kd is a measure of binding affinity in units of concentration. The low end stands for higher affinity, the high end for lower affinity.

Test [1] addresses T1, 重组SARS-CoV-2刺突蛋白胞外区 (extra cellular domain of spike protein, S-ECD) (SARS-CoV-2), P0DTC2. As to the kind of experiment: indirect ELISA, S-ECD coated at 1 μg/ml, end-point titre. The settings on record: remark: other sources report otherwise. For orientation: ELISA stands for enzyme-linked immunosorbent assay.
In test [2] the target is T1, 重组SARS-CoV-2刺突蛋白胞外区 (extra cellular …). As to the kind of experiment: SPR, Biacore 8K, S-ECD immobilised on a CM5 chip, antibody 125-7.8 nM. The settings on record: remark: other sources report otherwise. In general terms: In SPR one partner is held on a chip, and binding of the other changes the refractive index at the surface.

B1: FC05 (antibody)
chain 1: EVQLLEQSGAEVKKPGASVRVSCKVSGYTLPEVAMHWVRQAPGKGLEWMGGFDPEDGETIYAQKFQGRVTMTEDTSTDTAYMELSSLRSEDTAVYYCATTTPFSSSFWFDPWGQGTLVTVSS
chain 2: QSVLTQAPSVSGAPGQKVTISCSGSSSNIGNNYVSWYQQLPGTAPKLLIYDNNKRPSGIPDRFSGSKSGTSATLGITGLQTGDEADYYCGTWDSSLSAVVFGGGTKLTVL
Turning to B1, the 抗体滴度 (dilution factor (1:x) from 1 mg/mL) in test [1] amounted to 320000. In test [2], this molecule had a Kd of 0.1 nM.
